Measured values taken from patent publication US20180044406A1 (UNIVERSITY OF ROCHESTER, published 2018).

Biological target: T1, recombinant His-glucosaminidase (His-Gmd), 6-His tagged 53 kDa glucosaminidase subunit of S. aureus autolysin (Staphylococcus aureus, UniProt A7X0T9 776-1254)
T1 sequence: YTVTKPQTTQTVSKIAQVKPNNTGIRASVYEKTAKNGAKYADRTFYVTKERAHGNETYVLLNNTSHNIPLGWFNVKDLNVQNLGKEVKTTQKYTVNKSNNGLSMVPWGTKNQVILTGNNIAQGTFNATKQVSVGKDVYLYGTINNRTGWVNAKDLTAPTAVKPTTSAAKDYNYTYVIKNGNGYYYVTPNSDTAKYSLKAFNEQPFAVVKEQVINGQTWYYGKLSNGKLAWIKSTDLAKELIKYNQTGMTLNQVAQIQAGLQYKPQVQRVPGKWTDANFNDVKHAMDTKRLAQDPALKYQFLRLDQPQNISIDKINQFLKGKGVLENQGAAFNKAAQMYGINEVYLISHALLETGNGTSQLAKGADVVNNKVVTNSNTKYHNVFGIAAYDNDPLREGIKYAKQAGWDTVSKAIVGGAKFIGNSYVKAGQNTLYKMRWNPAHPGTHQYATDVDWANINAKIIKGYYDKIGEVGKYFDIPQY
Assay: cell-based or functional assay

B1: monoclonal antibody 4A12 (mouse IgG1) (antibody, V domains shown)
VH: QVQLQQPGAELVGPGTSVKLSCKSSGYTFTKYWMHWLKQRPGQGLEWIGVIDPSDSYTNYNQKFKGKATLTVDTSSSTAYLQLSSLTSEDSAVYYCANYYGSYYDVMDFWGQGTSVTVSS
VL: DVQITQSPSYLAASPGETITINCRASKSISKYLAWYQEKPGKTNKLLICFGSTLQSGTPSRFSGSGSGTDFTLTISSLEPEDFATYYCQQHNEYPLTFGAGTKLELKR
- fold difference, mouse 4A12 against h4A12, in the minimum concentration able to achieve ~100% inhibition of Gmd activity: ~3 fold
